Like-named read-outs stand apart in the source and are kept apart here.
Assays:
[1] = biological target: VAPA (mammalian 2-hybrid construct) (UniProt Q9WV55); experiment: mammalian 2-hybrid (M2H); settings: n = 3; for response: parent: est. 170, read off a plot
[2] = biological target: NS1/2^MNoV (strain not told; partner of the VAPA mutants in Fig. 4A and 4C); experiment: mammalian 2-hybrid (M2H); settings: for response: read off a plot
[3] = biological target: the molecule itself; experiment: not stated; VAPA 133-226 in solution; dimeric size, method not given
[4] = biological target: the molecule itself; experiment: SEC + other: diffusion NMR; VAPA 8-226 in solution; dimer

Sequence of VAPA (mammalian 2-hybrid construct) (Q9WV55 whole entry): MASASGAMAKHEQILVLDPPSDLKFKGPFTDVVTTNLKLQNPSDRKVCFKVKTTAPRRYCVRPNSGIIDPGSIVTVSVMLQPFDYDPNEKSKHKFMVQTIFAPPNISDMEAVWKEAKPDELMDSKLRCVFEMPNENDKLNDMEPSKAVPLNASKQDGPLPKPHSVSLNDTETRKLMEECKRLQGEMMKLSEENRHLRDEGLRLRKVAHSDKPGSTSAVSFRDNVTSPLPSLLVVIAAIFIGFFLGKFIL

| Molecule | other: Fold Change [1] | response [1] [%fluc/Rluc] | other: Fold Change ([2]; n = 3) | response ([2]; n = 3, parent: est. 170) [%fluc/Rluc] | other results |
| --- | --- | --- | --- | --- | --- |
| NS1/2^MNoV of strain CR6 (mammalian 2-hybrid construct) D43A | 1.35 | 40 |  |  |  |
| NS1/2^MNoV of strain CR6 (mammalian 2-hybrid construct) D43K | 1.07 | 30 |  |  |  |
| NS1/2^MNoV of strain CR6 (mammalian 2-hybrid construct) D121G | 7.91 | 180 |  |  |  |
| NS1/2^MNoV of strain CR6 (mammalian 2-hybrid construct) D131G | 7.98 | 180 |  |  |  |
| NS1/2^MNoV of strain CR6 (mammalian 2-hybrid construct) E40A | 2.13 | 62 |  |  |  |
| NS1/2^MNoV of strain CR6 (mammalian 2-hybrid construct) E40K | 1.31 | 45 |  |  |  |
| NS1/2^MNoV of strain CR6 (mammalian 2-hybrid construct) E42A | 1.22 | 30 |  |  |  |
| NS1/2^MNoV of strain CR6 (mammalian 2-hybrid construct) E42K | 1.04 | 28 |  |  |  |
| NS1/2^MNoV of strain CR6 (mammalian 2-hybrid construct) E44A | 1.78 | 55 |  |  |  |
| NS1/2^MNoV of strain CR6 (mammalian 2-hybrid construct) E44K | 0.95 | 30 |  |  |  |
| NS1/2^MNoV of strain CR6 (mammalian 2-hybrid construct) E52K | 1.63 | 30 |  |  |  |
| NS1/2^MNoV of strain CR6 (mammalian 2-hybrid construct) E54K | 3.92 | 90 |  |  |  |
| NS1/2^MNoV of strain CR6 (mammalian 2-hybrid construct) H69L | 8.14 | 180 |  |  |  |
| NS1/2^MNoV of strain CR6 (mammalian 2-hybrid construct) M48A | 12.8 | 190 |  |  |  |
| NS1/2^MNoV of strain CR6 (mammalian 2-hybrid construct) M48D | 6.37 | 180 |  |  |  |
| NS1/2^MNoV of strain CR6 (mammalian 2-hybrid construct) M48G | 11.7 | 250 |  |  |  |
| NS1/2^MNoV of strain CR6 (mammalian 2-hybrid construct) M48I | 5.16 | 150 |  |  |  |
| NS1/2^MNoV of strain CR6 (mammalian 2-hybrid construct) M48L | 10.8 | 300 |  |  |  |
| NS1/2^MNoV of strain CR6 (mammalian 2-hybrid construct) N46C | 7.96 | 220 |  |  |  |

| Molecule | other: Fold Change [1] | response [1] [%fluc/Rluc] | other: Fold Change ([2]; n = 3) | response ([2]; n = 3, parent: est. 170) [%fluc/Rluc] | other results |
| --- | --- | --- | --- | --- | --- |
| NS1/2^MNoV of strain CR6 (mammalian 2-hybrid construct) N46D | 10.3 | 290 |  |  |  |
| NS1/2^MNoV of strain CR6 (mammalian 2-hybrid construct) N46G | 10.8 | 300 |  |  |  |
| NS1/2^MNoV of strain CR6 (mammalian 2-hybrid construct) S41G |  | 40 |  |  |  |
| NS1/2^MNoV of strain CR6 (mammalian 2-hybrid construct) T49A | 1.55 | 50 |  |  |  |
| NS1/2^MNoV of strain CR6 (mammalian 2-hybrid construct) T49G | 1.35 | 30 |  |  |  |
| NS1/2^MNoV of strain CR6 (mammalian 2-hybrid construct) V45A | 8.72 | 250 |  |  |  |
| NS1/2^MNoV of strain CR6 (mammalian 2-hybrid construct) V45G | 8.32 | 240 |  |  |  |
| NS1/2^MNoV of strain CR6 (mammalian 2-hybrid construct) V45I | 5.53 | 100 |  |  |  |
| NS1/2^MNoV of strain CR6 (mammalian 2-hybrid construct) Y47A | 1.55 | 45 |  |  |  |
| NS1/2^MNoV of strain CR6 (mammalian 2-hybrid construct) Y47G | 1.25 | 30 |  |  |  |
| VAPA (mammalian 2-hybrid construct) (from UniProt Q9WV55) C60A |  |  | 3.9 | 61 |  |
| VAPA (mammalian 2-hybrid construct) (from UniProt Q9WV55) D123A |  |  | 8.18 | 110 |  |
| VAPA (mammalian 2-hybrid construct) (from UniProt Q9WV55) H195E; R197E |  |  |  |  | other: Fold Change [2]: 3.28; response ([2]; parent: est. 140): 85 %fluc/Rluc |
| VAPA (mammalian 2-hybrid construct) (from UniProt Q9WV55) K50A |  |  | 3.11 | 69 |  |
| VAPA (mammalian 2-hybrid construct) (from UniProt Q9WV55) K50E |  |  | 2.26 | 41 |  |
| VAPA (mammalian 2-hybrid construct) (from UniProt Q9WV55) K50E; K52E |  |  |  |  | other: Fold Change [2]: 1.29; response ([2]; parent: est. 140): 38 %fluc/Rluc |
| VAPA (mammalian 2-hybrid construct) (from UniProt Q9WV55) K52A |  |  | 1.4 | 35 |  |
| VAPA (mammalian 2-hybrid construct) (from UniProt Q9WV55) K52E |  |  | 1.38 | 32 |  |
| VAPA (mammalian 2-hybrid construct) (from UniProt Q9WV55) K94A |  |  | 1.74 | 42 |  |

| Molecule | other: Fold Change [1] | response [1] [%fluc/Rluc] | other: Fold Change ([2]; n = 3) | response ([2]; n = 3, parent: est. 170) [%fluc/Rluc] | other results |
| --- | --- | --- | --- | --- | --- |
| VAPA (mammalian 2-hybrid construct) (from UniProt Q9WV55) K94A; M96A |  |  |  |  | other: Fold Change [2]: 0.95; response ([2]; parent: est. 140): 27 %fluc/Rluc |
| VAPA (mammalian 2-hybrid construct) (from UniProt Q9WV55) K94E |  |  | 1.2 | 38 |  |
| VAPA (mammalian 2-hybrid construct) (from UniProt Q9WV55) K125A |  |  | 1.67 | 27 |  |
| VAPA (mammalian 2-hybrid construct) (from UniProt Q9WV55) K125E |  |  | 1.47 | 27 |  |
| VAPA (mammalian 2-hybrid construct) (from UniProt Q9WV55) K125E; R127E |  |  |  |  | other: Fold Change [2]: 0.84; response ([2]; parent: est. 140): 23 %fluc/Rluc |
| VAPA (mammalian 2-hybrid construct) (from UniProt Q9WV55) K161E; H163E |  |  |  |  | other: Fold Change [2]: 2.43; response ([2]; parent: est. 140): 80 %fluc/Rluc |
| VAPA (mammalian 2-hybrid construct) (from UniProt Q9WV55) M96A |  |  | 2.72 | 63 |  |
| VAPA (mammalian 2-hybrid construct) (from UniProt Q9WV55) N64A |  |  | 3.82 | 100 |  |
| VAPA (mammalian 2-hybrid construct) (from UniProt Q9WV55) R62A |  |  | 3.26 | 80 |  |
| VAPA (mammalian 2-hybrid construct) (from UniProt Q9WV55) R62E |  |  | 1.64 | 34 |  |
| VAPA (mammalian 2-hybrid construct) (from UniProt Q9WV55) R127A |  |  | 3.1 | 77 |  |
| VAPA (mammalian 2-hybrid construct) (from UniProt Q9WV55) R127E |  |  | 2.53 | 40 |  |
| VAPA (mammalian 2-hybrid construct) (from UniProt Q9WV55) R202E; R204E |  |  |  |  | other: Fold Change [2]: 2.78; response ([2]; parent: est. 140): 74 %fluc/Rluc |
| VAPA (mammalian 2-hybrid construct) (from UniProt Q9WV55) T53A |  |  | 2.94 | 75 |  |
| VAPA (mammalian 2-hybrid construct) (from UniProt Q9WV55) T54A |  |  | 1.78 | 44 |  |
| VAPA (mammalian 2-hybrid construct) (from UniProt Q9WV55) V51A |  |  | 1.66 | 32 |  |
| VAPA (mammalian 2-hybrid construct) (from UniProt Q9WV55) V61A |  |  | 7.18 | 190 |  |
| VAPA fragment (133–226), isolated coiled-coil domain (domain or fragment, murine VAPA, linker and coiled-coil domain, residues 133-226; also called coiled-coil domain (P133–S226 of VAPA); CCD; source: E. coli, purified) PNENDKLNDMEPSKAVPLNASKQDGPLPKPHSVSLNDTETRKLMEECKRLQGEMMKLSEENRHLRDEGLRLRKVAHSDKPGSTSAVSFRDNVTS |  |  |  |  | stoichiometry N [3]: 2 |
| VAPA MSP domain with linker and coiled-coil domain (8–226) (domain or fragment, murine VAPA, MSP domain with linker and coiled-coil domain, residues 8-226; Natural abundance (unlabeled) in the titrations of 15N NS1; also called VAPA (M8–S226 of VAPA); unlabeled VAPA; source: E. coli, purified) MAKHEQILVLDPPSDLKFKGPFTDVVTTNLKLQNPSDRKVCFKVKTTAPRRYCVRPNSGIIDPGSIVTVSVMLQPFDYDPNEKSKHKFMVQTIFAPPNISDMEAVWKEAKPDELMDSKLRCVFEMPNENDKLNDMEPSKAVPLNASKQDGPLPKPHSVSLNDTETRKLMEECKRLQGEMMKLSEENRHLRDEGLRLRKVAHSDKPGSTSAVSFRDNVTS |  |  |  |  | stoichiometry N [4]: 2 |
